Results: the supplement of paper PMC7125110
± gives the standard error. This sample holds only a part of the variants without activity.

B1: glmS ribozyme (parent)
chain: AUAAAAGCGCCAGAACUACAGAAAUGUAGUUGACGAGGAGGAGGUUUAUCGAAUUUUCGGCGGAUGCCUCCAAA

Variants of: B1
Experiment: self-cleavage kobs at 2500 uM GlcN6P; higher = faster cleavage; RNA array
Conditions: with glucosamine-6-phosphate
How it was run: (§1)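 Glucosamine-6-phosphate (40 μM to 10 mM) in HEPES/KCl/Mg(OAc)2 buffer was flowed over sequenced MiSeq chips, and tiles were imaged over ~14 h. Barcoded ribozyme variants there had been transcribed in situ by E. coli RNA polymerase and were tracked through a hybridised Cy3 probe at 37 °C. One- or two-exponential decay fits to per-tile medians, normalised to baseline and to non-cleaving reference variants, gave kobs. kcat and KM came from weighted Michaelis–Menten fits across concentrations.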

Going from AUAAAAGCGCCAGAGCUACAGAAAUGUAGUUCACGAGGAGGAGGUUUAUCGAGUUUUCGGCGGAUGCCUCCAAA to AUAAAAGCGCCAGAACUACAGAAAUGUAGUUUACGUCGAGGAGGUUGAUCGCAUUUUCGGCGGAUGGCUCCAAA, the “self-cleavage kobs at 2500 uM GlcN6P” value falls from 4.37e-05 ± 1.3e-05 s⁻¹ to less than 1e-05 s⁻¹.

Going from AUAAAAGCGCCAGAACUACAGAAAUGUAGUUGACGAGGUGGAGGUUUAUCGCAUUUUCGGCGGAUGGCGCCAAA to AUAAAAGCGCCAGAACUACAGAAAUGUAGUUGACGAGGAGGAGGAUGAUCGAAGUCUCGGCGGAUGCCUCCAAA, the “self-cleavage kobs at 2500 uM GlcN6P” value rises from less than 1e-05 s⁻¹ to 0.00285 ± 0.00062 s⁻¹.

Going from AUAAAAGCGCCAGCACUACAGAAAUGUAGUUGACGAGGAGGAGGUCUAUAGAAUUUCCGGUGGACGCCUCCAAA to AUAAAAGCGCCAAAACUACAGAAAUGUAGUUCACGAGGAGGAGGGUUAUCGAAUUUUCGGCGGAUGCCUCCAAA, the “self-cleavage kobs at 2500 uM GlcN6P” value rises from less than 1e-05 s⁻¹ to 4.68e-05 ± 1.9e-05 s⁻¹.

AUAAAAGCGCCAGAACUACAGAAAUGUAGGUGACGAGGAGGACGUUUCUCGAAUUUUCGGCGGAUGCCUCCAAA and AUAAAAGCGCCAGAACUACAGAAAUGUAGUUGACGAGGAGGAGGUUUAUCGAAUUGUCGUCGCAUGCCUCCAAA cannot be ordered by “self-cleavage kobs at 2500 uM GlcN6P” value: less than 1e-05 s⁻¹ for the first, less than 1e-05 s⁻¹ for the second.

AUAAAAGGGCCAGAACUACAGAAAUGUAGUUGACGAGGAGGGGGUUUAUCGUAUUUUCGGCGGAUGCCUCCAAA and AUAAAAGCGACAGAACUACAGAAAUGUAGUUGACAUGGAGGAGGUUUAUCGAAUUUUCGGCGGAUGCCUCCAAA cannot be ordered by “self-cleavage kobs at 2500 uM GlcN6P” value: less than 1e-05 s⁻¹ for the first, less than 1e-05 s⁻¹ for the second.

AUAAAAGCGCAAGAAUUACAGAAAUGUAGUUGACGAGGAGGAGGUUUAUCGAUUUUUCGGCGGAUGCCUCCAAA and AUAAAAGCGCCAGAACUACAGAAAUGUAAUUGACGAGGAGGAGGUUAAUCGUAUUUUCGGCGGAUGCCUCCAAA are within error of each other in “self-cleavage kobs at 2500 uM GlcN6P” value: 5.99e-05 ± 2.5e-05 s⁻¹ for the first, 4.18e-05 ± 1.7e-05 s⁻¹ for the second.

Compared with AUAAAUGUGCCAGAACUACAGAAAUGUAGUUAGCGAGGAGGAGAGUUAUCGAAUUUUCGGCGGAUGCCUCCAAA, AUAAAAGCGCCAGAACUACAGAAAUGUAGUUGACGAGGAGGAGGUUUAUCGGAUUUCCGGCGGAUGUCUCCAAA is higher in “self-cleavage kobs at 2500 uM GlcN6P” value: less than 1e-05 s⁻¹ for the first, 0.000161 ± 7.8e-05 s⁻¹ for the second.

AUAAAAGCGCCAGAGCUACAGAAAUGUAGUUGACGAGGAGGAGGUUUAUCAAAUUUCCGGCGGAUGCCUCCAAA and AUAAAAGCGCCAGAACUACAGAAAUGUAGUUGACGAGGAGGAGGUUUAUCCAAUUUUCGGCGGAUCCCUCAAAA cannot be ordered by “self-cleavage kobs at 2500 uM GlcN6P” value: less than 1e-05 s⁻¹ for the first, less than 1e-05 s⁻¹ for the second.

AUAAAAGCGCCAGAACUACAGAAAUGUAGUUGACGAGGCGGAGGUUUAUCGAAUUUUCGCCGGAUGGCUCCAAA and AUAAAAAGCGCCAGAAUACAGAAAUGUAGUUGACGAGGAGCAGGUUUAUCGAAUUUUCGGCGGAUUCCUCCAAA cannot be ordered by “self-cleavage kobs at 2500 uM GlcN6P” value: less than 1e-05 s⁻¹ for the first, less than 1e-05 s⁻¹ for the second.

AUAAAAGCGCCAGAACUACAGAAAUGUAGUUGACAAUGAGGAGGUUUAUCCAAUUUUCGGCGGAUGCCUCCAAA and AUAAAAGCGCCAGAGCUACAGAAAUGUAGUUGACGAGGAGGAGGUUUAUCGAAUUUUCUGCGUAUGCCUCCAAA cannot be ordered by “self-cleavage kobs at 2500 uM GlcN6P” value: less than 1e-05 s⁻¹ for the first, less than 1e-05 s⁻¹ for the second.

AUAAAAGCGCCAGAACUACAGAAAUGUAGUUGACGAGGAGGAGGUUUAUCGAAUUGUCGACGGAGGCCUCCAAA and AUAAAAGCGCCAGAACUACAGAAAUGUAGUUGACUAUGAGGAUAUUUAUCGAAUUUUCGGCGGAUGCCUCCAAA cannot be ordered by “self-cleavage kobs at 2500 uM GlcN6P” value: less than 1e-05 s⁻¹ for the first, less than 1e-05 s⁻¹ for the second.

AUAAAAGCGCCAGAACUACAGAAAUGUAGUUGCCGAGGAGGAGGUUUAUCGAAUUUUCGGCGAAUGCAUCCAAA and AUAAAAGCGCUAGAACUACAGAAAUGUAGUUGACGAGGAGGAGGUUUAUCGAAUUUUCGGCGAACGCCUCCAAA cannot be ordered by “self-cleavage kobs at 2500 uM GlcN6P” value: less than 1e-05 s⁻¹ for the first, less than 1e-05 s⁻¹ for the second.

AUAAAAGCGCUAGGACUACAGAAAUGUAGUUGACGAGGAGGAAGUUUAUCGAAUUUUCGGCGGAUGCCUCCAAA and AUAAAAGCGCCAGAUCUACAGAAAUGUAGCCGACGAGGAUGAGGUUUAUCGAAUUUUCGGCGGUUACCUCCAAA cannot be ordered by “self-cleavage kobs at 2500 uM GlcN6P” value: less than 1e-05 s⁻¹ for the first, less than 1e-05 s⁻¹ for the second.

First: AUAAAUGCGCCAGAACUACAGAAAUGUAGUUGACGAGCAGGAGGUUAGUCGAAUUUUCGGCGGAUACCGCCAAA
Second: AUAAAAGCGCCAGUACUACAGAAAUGUAUUUGACGAGGAGGAGGUUUAUCGAAUUUUCGGCGGAUGUCUCCAAA
The “self-cleavage kobs at 2500 uM GlcN6P” value of the first is lower: less than 1e-05 s⁻¹ for the first, 9.48e-05 ± 2.4e-05 s⁻¹ for the second.

Going from AUAAAAUCGCCAGAACUACAGAAAUGUAGUUGACGAGGGGGAGGUUUAUCGAAUUGUCGGCGGAUGCCUACAAA to AUAAAAGCGACAGAACUACAGAAAUGUAGUUGACGAGGAGGAGGUUUAUAGAAUUUUCGGCGGAUGUCUCCAAA, the “self-cleavage kobs at 2500 uM GlcN6P” value rises from less than 1e-05 s⁻¹ to 0.000776 ± 0.00021 s⁻¹.

Compared with AUAAAAGCGCCAGAACUACAGAAAUGUAGUUGACGAGGAGGAGGUUGAUCGAAGUUCCGGCGGAUGCCUCCAAA, AUAAAAGCGCCAGAAAUACAGAAAUGUAGUUGACGAGGAUGAGGUUUAUCGAAUUUACGGCGGAUGUCUCCAAA is lower in “self-cleavage kobs at 2500 uM GlcN6P” value: 0.00011 ± 2.6e-05 s⁻¹ for the first, less than 1e-05 s⁻¹ for the second.

With AUAAAAGCGCCAGAACUACAGAAAUGUAGUUGACGAUGAUGAGGUUUAUCGAAUCUUCGGCGGAUGCCUCCAAA the “self-cleavage kobs at 2500 uM GlcN6P” value was less than 1e-05 s⁻¹.

Variants of: B1
Experiment: self-cleavage kobs at 10000 uM GlcN6P; higher = faster cleavage; RNA array
Conditions: with glucosamine-6-phosphate
How it was run: as §1

Compared with AUAAAAGCGCCAGAACUACAGAAAUGUAGUUGACGAGGAGGAGGUUUAUCGGAUUUCCGGCGGAUGUCUCCAAA, AUAAAUGCGCCAGAACUACAGAAAUGUAGUUGACGAGCAGGAGGUUAGUCGAAUUUUCGGCGGAUACCGCCAAA is lower in “self-cleavage kobs at 10000 uM GlcN6P” value: 0.000116 ± 2.5e-05 s⁻¹ for the first, less than 1e-05 s⁻¹ for the second.

Compared with AUAAAAGCGACAGAACUACAGAAAUGUAGUUGACGAGGAGGAGGUUUAUAGAAUUUUCGGCGGAUGUCUCCAAA, AUAAAAGCGCCAGAAAUACAGAAAUGUAGUUGACGAGGAUGAGGUUUAUCGAAUUUACGGCGGAUGUCUCCAAA is lower in “self-cleavage kobs at 10000 uM GlcN6P” value: 4.36e-05 ± 1.7e-05 s⁻¹ for the first, less than 1e-05 s⁻¹ for the second.
